Test results published in PMC7713142, “Crystal structure of the yeast heterodimeric ADAT2/3 deaminase”.

Tests used:
[1] = molecular target: Saccharomyces cerevisiae ADAT3 (S. cerevisiae)
[2] = molecular target: ScADAT2 (TAD2);ScADAT3 K50A (Saccharomyces cerevisiae;Saccharomyces …, UniProt P47058;Q9URQ3 1-250;1-322, |K50A); assay: EMSA; 2 uM tRNA, varied enzyme:tRNA molar ratios; EMSA: 20 mM Tris-HCl pH 8.0, 1 mM DTT, 2 uM tRNA, on ice 60 min; 6% native PAGE, 40 mM Tris-HCl pH 9.0 running buffer; settings: protein: recombinant;recombinant; tags: none (untagged in co-expression);N-terminal His6, cleaved (PreScission); copies: 1;1; label: none; tRNA cloverleaf
[3] = molecular target: ScADAT2 (TAD2);ScADAT3 (TAD3) WT (Saccharomyces cerevisiae;Saccharomyces …, UniProt P47058;Q9URQ3 1-250;1-322, |); assay: as above; settings: protein: recombinant;recombinant; tags: none (untagged in co-expression);N-terminal His6, cleaved (PreScission); copies: 1;1; label: none; tRNA cloverleaf
[4] = molecular target: ScADAT2 (TAD2);ScADAT3 R75A/K76A (Saccharomyces cerevisiae;Saccharomyces …, UniProt P47058;Q9URQ3 1-250;1-322, |R75A;K76A); assay: as above; settings: protein: recombinant;recombinant; tags: none (untagged in co-expression);N-terminal His6, cleaved (PreScission); copies: 1;1; label: none; tRNA cloverleaf
[5] = molecular target: ScADAT2 (TAD2);ScADAT3 K72A/R73A (Saccharomyces cerevisiae;Saccharomyces …, UniProt P47058;Q9URQ3 1-250;1-322, |K72A;R73A); assay: as above; settings: protein: recombinant;recombinant; tags: none (untagged in co-expression);N-terminal His6, cleaved (PreScission); copies: 1;1; label: none; tRNA cloverleaf
[6] = molecular target: ScADAT2 (TAD2);ScADAT3 Del30-148 (Saccharomyces cerevisiae;Saccharomyces …, UniProt P47058;Q9URQ3 1-250;1-322, |del30-148); assay: as above; settings: protein: recombinant;recombinant; tags: none (untagged in co-expression);N-terminal His6, cleaved (PreScission); copies: 1;1; label: none; tRNA cloverleaf
Sequence of ScADAT2 (TAD2);ScADAT3 Del30-148 (P47058 whole entry, stated change not applied, chain 1 of 2): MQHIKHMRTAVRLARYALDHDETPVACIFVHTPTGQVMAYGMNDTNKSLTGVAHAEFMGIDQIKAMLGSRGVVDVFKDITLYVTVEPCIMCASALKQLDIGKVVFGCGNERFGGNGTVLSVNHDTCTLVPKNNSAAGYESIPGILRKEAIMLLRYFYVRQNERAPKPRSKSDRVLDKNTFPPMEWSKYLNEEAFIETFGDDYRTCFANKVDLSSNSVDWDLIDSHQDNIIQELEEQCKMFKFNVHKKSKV
Sequence of ScADAT2 (TAD2);ScADAT3 Del30-148 (Q9URQ3 other isoform, or with tags, fused parts or gaps |del30-148, chain 2 of 2): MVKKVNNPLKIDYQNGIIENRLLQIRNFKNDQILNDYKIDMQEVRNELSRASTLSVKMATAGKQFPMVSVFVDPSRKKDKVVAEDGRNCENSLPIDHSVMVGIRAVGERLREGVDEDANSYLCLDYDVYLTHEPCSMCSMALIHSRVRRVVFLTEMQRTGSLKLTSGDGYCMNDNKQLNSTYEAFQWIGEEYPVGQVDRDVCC

Sequence of ScADAT2 (TAD2);ScADAT3 R75A/K76A (P47058 whole entry, chain 1 of 2): as the sequence (P47058 whole entry, stated change not applied, chain 1 of 2) above
Sequence of ScADAT2 (TAD2);ScADAT3 R75A/K76A (Q9URQ3 whole entry R75A/K76A, chain 2 of 2): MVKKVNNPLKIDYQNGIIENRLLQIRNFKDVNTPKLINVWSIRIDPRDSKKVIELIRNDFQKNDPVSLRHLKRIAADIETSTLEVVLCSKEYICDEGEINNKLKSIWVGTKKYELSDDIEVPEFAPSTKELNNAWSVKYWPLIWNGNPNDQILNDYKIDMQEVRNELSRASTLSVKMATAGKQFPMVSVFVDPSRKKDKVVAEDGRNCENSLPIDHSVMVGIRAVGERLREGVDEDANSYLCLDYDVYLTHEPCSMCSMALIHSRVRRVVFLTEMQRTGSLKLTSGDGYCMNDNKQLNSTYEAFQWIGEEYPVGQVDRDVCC
Sequence of ScADAT2 (TAD2);ScADAT3 K50A (P47058 whole entry, chain 1 of 2): as the sequence (P47058 whole entry, stated change not applied, chain 1 of 2) above
Sequence of ScADAT2 (TAD2);ScADAT3 K50A (Q9URQ3 whole entry K50A, chain 2 of 2): as the sequence (Q9URQ3 whole entry R75A/K76A, chain 2 of 2) above, with K50A, A75R, A76K counted along it
Sequence of ScADAT2 (TAD2);ScADAT3 (TAD3) WT (P47058 whole entry, chain 1 of 2): as the sequence (P47058 whole entry, stated change not applied, chain 1 of 2) above
Sequence of ScADAT2 (TAD2);ScADAT3 (TAD3) WT (Q9URQ3 whole entry, chain 2 of 2): as the sequence (Q9URQ3 whole entry R75A/K76A, chain 2 of 2) above, with A75R, A76K counted along it
Sequence of ScADAT2 (TAD2);ScADAT3 K72A/R73A (P47058 whole entry, chain 1 of 2): as the sequence (P47058 whole entry, stated change not applied, chain 1 of 2) above
Sequence of ScADAT2 (TAD2);ScADAT3 K72A/R73A (Q9URQ3 whole entry K72A/R73A, chain 2 of 2): as the sequence (Q9URQ3 whole entry R75A/K76A, chain 2 of 2) above, with K72A, R73A, A75R, A76K counted along it

Molecule | in vitro deamination of tRNA^Ala by the heterodimer (30 nM enzyme), coupled to cleavage by EcEndoV, against WT [1] | further results
ScADAT2/F57A (enzyme) | > 50 % activity | –
ScADAT2/I89A (enzyme) | > 50 % activity | –
ScADAT2/L119A/V121A (enzyme) | > 50 % activity | –
ScADAT2/Q97A (enzyme) | > 50 % activity | –
ScADAT2/S93A (enzyme) | > 50 % activity | –
tRNAAla (structured_RNA, none (in vitro transcript)) RNA: GGGCGUGUGGCGUAGUCGGUAGCGCGCUCCCUUAGCAUGGGAGAGGUCUCCGGUUCGAUUCCGGACUCGUCCACCA | – | binding result [2]: no binding; binding result [3]: binds; binding result [4]: no binding; binding result [5]: no binding; binding result [6]: no binding

Further lines, with some results ahead:

in vitro deamination of tRNA^Ala by the heterodimer (30 nM enzyme), coupled to cleavage by EcEndoV, against WT [1] | Molecule | further results
> 50 % activity | ScADAT2-D124A/T125A/C126A/T127A (enzyme) | –
> 50 % activity | ScADAT2/L49A (enzyme) | –
> 50 % activity | ScADAT2/S69A (enzyme) | –
> 50 % activity | ScADAT2/V52A (enzyme) | –
